# In the RNAGym collection of RNA variant scans (doi:10.1073/pnas.2313332121):
# Fewer inactive variants are shown than the library holds.
# B1: TPR 5TU (parent)
# chain: GGAUCUUCUCGAUCUAACAAAAAAGACAAAUCUGCCACAAAGCUUGAGAGCAUCUUCGGAUGCAGAGGCGGCAGCCUUCGGUGGCGCGAUAGCGCCAACGUUCUCAACUAUGACACGCAAAACGCGUGCUCCGUUGAAUGGAGUUUAUCAUG
# Variants of: B1
# Assay: polymerase ribozyme fitness, log enrichment relative to wild type (log ratio); higher = more active; in vitro selection for triplet polymerase activity
# Method in brief: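 To select mutant libraries of each subunit of a heterodimeric triplet polymerase ribozyme, built by PCR and transcribed, each was annealed with a biotinylated primer, partner subunit and triplets, then incubated frozen at −7 °C. Extended constructs were gel-excised, captured on streptavidin beads and amplified by RT-PCR, in one round carried out in triplicate. Illumina sequencing of input and output libraries kept genotypes with ≥10 input reads and ≥1 read per output. Fitness is the base-2 logarithm of genotype enrichment relative to wild-type enrichment, from inverse-variance-weighted replicate averages.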
row,Variant,polymerase ribozyme fitness (log ratio)
1,C14A U61G U111A A121C,≤ -4.2
2,C14A A19C G58U A89U,-2.28
3,A12G C116G G126U,1.17
4,C14G A20U,-2.37
5,U13A A39U U45A G59C C72U G94C U101A A142C,≤ -4.2
6,U13G G86U,-3.56
7,A12U U31G A60G G83C,-1.56
8,C14G A66U C69A,≤ -4.2
9,U13G A30C C85A,≤ -4.2
10,C14G G48C U146A,-4.06
11,C14G A39C C54G G71U C79G,≤ -4.2
12,C14G A20C G92C C125G,-3.88
13,A12U A39U U55A G68A C96U U145G,≤ -4.2
14,U13G C85U A106G G126U G140C,-3.96
15,U13G U31C A40G G58U U78C C85G C114U G141U,≤ -4.2
16,A12U U15G A39U G86U U102G C116U,≤ -4.2
17,U13G G42A U56G G86U G133C G143U U146C,≤ -4.2
18,C14G G141A,-1.87
19,C14A,-1.08
20,C14G,-2.09
21,A12G U15A U55G C87G C99G C114A A119U,≤ -4.2

row,Variant,polymerase ribozyme fitness (log ratio)
1,C14G C38A A52C C57A G62A G83A A89C C96G A110C,-3.85
2,A12U A89U G94U C108G C118U A120C A122C A137C,≤ -4.2
3,A12G G42A G62A U101C C105G U134G,≤ -4.2
4,C14G C35A G42C A66G C96G G117U,≤ -4.2
5,C14G A39G U53A C54U C93A,≤ -4.2
6,U13C A49C C93A,≤ -4.2
7,C14A A73G G86A A98U,-3.58
8,C14G A47C C54G U56A C93A C108U G124U G128A,≤ -4.2
9,C14G C75A G84U,-4.14
10,C14G G83A,-2.42
11,A12G G88C,-3.71
12,U13G C69A,≤ -4.2
13,C14G A29U A30G C96U,≤ -4.2
14,C14G A21G G34A A37C G50C C57G A60C A64G,≤ -4.2
15,C14A A37G C93U,-4.13
16,C14A G58U,-1.88
17,C14A G58C,-1.28
18,C14A A17U A21G C54U A60G,-3.75
19,U13C A19U U55A G83A U111G,≤ -4.2
20,U13C C18G A21U A40C U53G A60U U61A G94U G100A G126A,≤ -4.2
21,C14G C18U A22C A40C U53A C75A U77A G94C G117U A119G C149G,≤ -4.2

row,Variant,polymerase ribozyme fitness (log ratio)
1,C14A U15G A26U G86U G92U A107U U109A C116A,≤ -4.2
2,C14A G59A U82A G84U,-4.06
3,A12U C14U A121U C125U,-0.306
4,U13G U33G U56A A60U G143U,≤ -4.2
5,C14G A30C G50A C76U C87A A107G U111C A120U,≤ -4.2
6,U13C U56A A60G C95U C105G U109G C132A U145G,≤ -4.2
7,U13G U111G,≤ -4.2
8,C14G A52C G58A C96U C125G,-3.92
9,C14A C69G C75A G92U G140U,≤ -4.2
10,A12G G84A,-0.68
11,C14G A24U A30U U44A C54A C87U G112U,-4.11
12,C14A A20U A21U U102G,≤ -4.2
13,C14G A20U U55A C85A C105U U134A,≤ -4.2
14,A12U C118U A119C G136A G143C,-3.19
15,U13G A19C A29G G50C U127C,≤ -4.2
16,C14A A21C A22C,-0.829
17,C14G A20C C38U A147U,-2.09
18,U13G C14G A20U A37G A47C A49U C99U C149U,≤ -4.2
19,C14G C36U U55G G68U C93G U134A,≤ -4.2
20,U13G A24U A37G U134C,-4.14
21,U13A C76U C105G C114U,≤ -4.2

row,Variant,polymerase ribozyme fitness (log ratio)
1,C14G A23U C54G G67U A142U U151A,≤ -4.2
2,U13A A16G G86U,-2.89
3,C14G A24C C35U C57A G84U A97U,≤ -4.2
4,C14G A107G G136U,≤ -4.2
5,A12U A47G C118G,-1.11
6,C14G C36A A52G A66C C93U C125A,≤ -4.2
7,U13G C76A,-2.11
8,U13G A21C C27A U55A C99A C103G,≤ -4.2
9,C14G A24C A26U C36A A73G A107U A119U U144A,≤ -4.2
10,C14G C57U,-2.06
11,C14G C57A,-1.52
12,A12G U53A U56A U82G A91U G117C A142G,-4.16
13,C14G C27A A37U C54U G67A G94U C105G,≤ -4.2
14,A12U C36G G92C A147G,≤ -4.2
15,C14G G46U G48A A73U U77C,≤ -4.2
16,U13C U31G C32G C76U C131G,≤ -4.2
17,A12U C27U C38U G59U C63A C93A,-4.12
18,A12U A21U C87G C99U C125U,≤ -4.2
19,C14G A24C A49G G92C,≤ -4.2
20,U13C A21G U31C G42A A52C C95A C129G,≤ -4.2
